Source: the supplement of paper PMC9112550, “Optimization of the antimicrobial peptide Bac7 by deep mutational scanning” (BMC Biology, 2022)

system: Escherichia coli TOP10; experiment: shrunken log2 fold change of peptide-encoding DNA abundance (4.5 h post-induction vs induction); higher = less antimicrobial activity (less host growth inhibition); conditions: time post-induction: 4.5 h; library: site-saturation at positions 5, 18, 19, 20
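Note: peptides expressed intracellularly from a pBAD plasmid library in pooled LB shake-flask culture, induced with 0.3% L-arabinose, DNA abundance read by NGS, three biological replicates, DESeq2 with apeglm shrinkage.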

**Q.** With RRIRVRPPRLPRPRPRPEHFPRP as the sequence, how does the “shrunken log2 fold change” value read?
**A.** 0.131

**Q.** With RRIRPRPPRLPRPRPRPNYEPRP as the sequence, how does the “shrunken log2 fold change” value read?
**A.** -0.442

**Q.** For RRIRERPPRLPRPRPRPFCRPRP, which “shrunken log2 fold change” value is on record?
**A.** -0.0911

**Q.** Which “shrunken log2 fold change” value does the source give for RRIRQRPPRLPRPRPRPVMRPRP here?
**A.** 0.444

**Q.** How did the “shrunken log2 fold change” value turn out when RRIRCRPPRLPRPRPRPMMFPRP was run?
**A.** 0.312

**Q.** RRIRTRPPRLPRPRPRPMSYPRP was tested. Which “shrunken log2 fold change” value did it give?
**A.** 0.0494

**Q.** Which “shrunken log2 fold change” value does the source give for RRIRVRPPRLPRPRPRPKVQPRP here?
**A.** 3.74

**Q.** For RRIRYRPPRLPRPRPRPNHMPRP, which “shrunken log2 fold change” value is on record?
**A.** -0.611

**Q.** RRIRSRPPRLPRPRPRPLNRPRP was tested. Which “shrunken log2 fold change” value did it give?
**A.** -0.246

**Q.** Which “shrunken log2 fold change” value does the source give for RRIRERPPRLPRPRPRPAPHPRP here?
**A.** 0.704

**Q.** RRIRLRPPRLPRPRPRPVLKPRP was tested. Which “shrunken log2 fold change” value did it give?
**A.** 0.0956

**Q.** With RRIRARPPRLPRPRPRPSRMPRP as the sequence, how does the “shrunken log2 fold change” value read?
**A.** 0.362

**Q.** RRIRSRPPRLPRPRPRPERVPRP was tested. Which “shrunken log2 fold change” value did it give?
**A.** 0.21

**Q.** With RRIRERPPRLPRPRPRPVRKPRP as the sequence, how does the “shrunken log2 fold change” value read?
**A.** -0.0457

**Q.** RRIRPRPPRLPRPRPRPSWHPRP was tested. Which “shrunken log2 fold change” value did it give?
**A.** 0.182

**Q.** For RRIRTRPPRLPRPRPRPCINPRP, which “shrunken log2 fold change” value is on record?
**A.** -0.686

**Q.** For RRIRIRPPRLPRPRPRPSGDPRP, which “shrunken log2 fold change” value is on record?
**A.** -0.742

**Q.** For RRIRWRPPRLPRPRPRPQHFPRP, which “shrunken log2 fold change” value is on record?
**A.** 0.418

**Q.** Which “shrunken log2 fold change” value does the source give for RRIRYRPPRLPRPRPRPMSKPRP here?
**A.** 3.29

**Q.** Which “shrunken log2 fold change” value does the source give for RRIRVRPPRLPRPRPRPFSSPRP here?
**A.** -0.068

**Q.** With RRIRHRPPRLPRPRPRPRYCPRP as the sequence, how does the “shrunken log2 fold change” value read?
**A.** -0.293

**Q.** With RRIRQRPPRLPRPRPRPEYKPRP as the sequence, how does the “shrunken log2 fold change” value read?
**A.** -0.124

**Q.** For RRIRPRPPRLPRPRPRPNKDPRP, which “shrunken log2 fold change” value is on record?
**A.** -0.534

**Q.** With RRIRRRPPRLPRPRPRPYTGPRP as the sequence, how does the “shrunken log2 fold change” value read?
**A.** -0.126

**Q.** Which “shrunken log2 fold change” value does the source give for RRIRDRPPRLPRPRPRPSHNPRP here?
**A.** -0.314

**Q.** Which “shrunken log2 fold change” value does the source give for RRIRGRPPRLPRPRPRPDQEPRP here?
**A.** 1.05

**Q.** Which “shrunken log2 fold change” value does the source give for RRIRHRPPRLPRPRPRPDATPRP here?
**A.** 0.286

**Q.** How did the “shrunken log2 fold change” value turn out when RRIRCRPPRLPRPRPRPVQCPRP was run?
**A.** 0.207

**Q.** RRIRCRPPRLPRPRPRPHFQPRP was tested. Which “shrunken log2 fold change” value did it give?
**A.** -0.511

**Q.** For RRIRYRPPRLPRPRPRPLFSPRP, which “shrunken log2 fold change” value is on record?
**A.** -0.673

**Q.** For RRIRERPPRLPRPRPRPAQWPRP, which “shrunken log2 fold change” value is on record?
**A.** 0.184

**Q.** RRIRWRPPRLPRPRPRPGETPRP was tested. Which “shrunken log2 fold change” value did it give?
**A.** 0.174

**Q.** For RRIRRRPPRLPRPRPRPSQKPRP, which “shrunken log2 fold change” value is on record?
**A.** -0.00949

**Q.** RRIRVRPPRLPRPRPRPFYWPRP was tested. Which “shrunken log2 fold change” value did it give?
**A.** -0.103

**Q.** RRIRIRPPRLPRPRPRPIEPPRP was tested. Which “shrunken log2 fold change” value did it give?
**A.** 0.0377

**Q.** For RRIRFRPPRLPRPRPRPEFFPRP, which “shrunken log2 fold change” value is on record?
**A.** -0.153

**Q.** RRIRHRPPRLPRPRPRPWMTPRP was tested. Which “shrunken log2 fold change” value did it give?
**A.** -0.225

**Q.** Which “shrunken log2 fold change” value does the source give for RRIRARPPRLPRPRPRPFIGPRP here?
**A.** -0.457

**Q.** How did the “shrunken log2 fold change” value turn out when RRIRMRPPRLPRPRPRPPQYPRP was run?
**A.** 0.465

**Q.** RRIRLRPPRLPRPRPRPGAEPRP was tested. Which “shrunken log2 fold change” value did it give?
**A.** 0.505

**Q.** With RRIRSRPPRLPRPRPRPMTMPRP as the sequence, how does the “shrunken log2 fold change” value read?
**A.** -0.245

**Q.** How did the “shrunken log2 fold change” value turn out when RRIRARPPRLPRPRPRPVQNPRP was run?
**A.** 0.814

**Q.** For RRIRIRPPRLPRPRPRPVHKPRP, which “shrunken log2 fold change” value is on record?
**A.** -0.442

**Q.** RRIRCRPPRLPRPRPRPWNDPRP was tested. Which “shrunken log2 fold change” value did it give?
**A.** 0.00383

**Q.** Which “shrunken log2 fold change” value does the source give for RRIRARPPRLPRPRPRPHNSPRP here?
**A.** 1.18

**Q.** With RRIRGRPPRLPRPRPRPWVPPRP as the sequence, how does the “shrunken log2 fold change” value read?
**A.** 0.0241

**Q.** Which “shrunken log2 fold change” value does the source give for RRIRTRPPRLPRPRPRPDRMPRP here?
**A.** -0.0127

**Q.** For RRIRVRPPRLPRPRPRPLPNPRP, which “shrunken log2 fold change” value is on record?
**A.** -0.0957

**Q.** How did the “shrunken log2 fold change” value turn out when RRIRNRPPRLPRPRPRPYPQPRP was run?
**A.** -0.138

**Q.** With RRIRYRPPRLPRPRPRPWKVPRP as the sequence, how does the “shrunken log2 fold change” value read?
**A.** -0.498

**Q.** How did the “shrunken log2 fold change” value turn out when RRIRPRPPRLPRPRPRPTSCPRP was run?
**A.** 0.193

**Q.** How did the “shrunken log2 fold change” value turn out when RRIRKRPPRLPRPRPRPMYYPRP was run?
**A.** -0.148

**Q.** RRIRYRPPRLPRPRPRPQPYPRP was tested. Which “shrunken log2 fold change” value did it give?
**A.** -0.649

**Q.** RRIRKRPPRLPRPRPRPGDQPRP was tested. Which “shrunken log2 fold change” value did it give?
**A.** -0.00987

**Q.** RRIRIRPPRLPRPRPRPISNPRP was tested. Which “shrunken log2 fold change” value did it give?
**A.** -0.000216

**Q.** Which “shrunken log2 fold change” value does the source give for RRIRKRPPRLPRPRPRPCETPRP here?
**A.** -0.0599

**Q.** RRIRVRPPRLPRPRPRPYALPRP was tested. Which “shrunken log2 fold change” value did it give?
**A.** -0.848

**Q.** For RRIRHRPPRLPRPRPRPLTQPRP, which “shrunken log2 fold change” value is on record?
**A.** -0.417

**Q.** For RRIRQRPPRLPRPRPRPSEVPRP, which “shrunken log2 fold change” value is on record?
**A.** -0.022

**Q.** Which “shrunken log2 fold change” value does the source give for RRIRYRPPRLPRPRPRPKNVPRP here?
**A.** 0.0242

**Q.** For RRIRDRPPRLPRPRPRPKHFPRP, which “shrunken log2 fold change” value is on record?
**A.** -0.15

**Q.** With RRIRQRPPRLPRPRPRPPQWPRP as the sequence, how does the “shrunken log2 fold change” value read?
**A.** 0.525

**Q.** RRIRCRPPRLPRPRPRPTNTPRP was tested. Which “shrunken log2 fold change” value did it give?
**A.** -0.364

**Q.** How did the “shrunken log2 fold change” value turn out when RRIRFRPPRLPRPRPRPTVKPRP was run?
**A.** -0.163

**Q.** For RRIRMRPPRLPRPRPRPVKSPRP, which “shrunken log2 fold change” value is on record?
**A.** 0.023

**Q.** RRIRGRPPRLPRPRPRPHMQPRP was tested. Which “shrunken log2 fold change” value did it give?
**A.** -0.121

**Q.** How did the “shrunken log2 fold change” value turn out when RRIRQRPPRLPRPRPRPPWVPRP was run?
**A.** 0.696

**Q.** Which “shrunken log2 fold change” value does the source give for RRIRARPPRLPRPRPRPAHAPRP here?
**A.** 1.07

**Q.** How did the “shrunken log2 fold change” value turn out when RRIRVRPPRLPRPRPRPVMHPRP was run?
**A.** -0.0179

**Q.** RRIRMRPPRLPRPRPRPANMPRP was tested. Which “shrunken log2 fold change” value did it give?
**A.** -0.203

**Q.** With RRIRLRPPRLPRPRPRPLGDPRP as the sequence, how does the “shrunken log2 fold change” value read?
**A.** 0.015

**Q.** How did the “shrunken log2 fold change” value turn out when RRIRNRPPRLPRPRPRPMRLPRP was run?
**A.** 0.286

**Q.** How did the “shrunken log2 fold change” value turn out when RRIRYRPPRLPRPRPRPEFYPRP was run?
**A.** -0.316

**Q.** RRIRGRPPRLPRPRPRPMRCPRP was tested. Which “shrunken log2 fold change” value did it give?
**A.** 0.581

**Q.** RRIRVRPPRLPRPRPRPPILPRP was tested. Which “shrunken log2 fold change” value did it give?
**A.** -0.313
